Results taken from the supplement of paper PMC10567573.
± gives the standard deviation.

Test: protein stability index of a GFP-peptide fusion (GPS, HEK-293T) (PSI 1-6); higher = more stable
Settings: c terminus: a fixed tail appended
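Also: 24-mer peptide tiles fused after GFP, lentivirally expressed, FACS-sorted into six equal bins by GFP/DsRed ratio, decoded by Illumina sequencing, PSI is the read-weighted mean bin number.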

| Sequence | protein stability index (treatment: DMSO) | protein stability index (treatment: MLN4924 1 uM, 8 h) |
| --- | --- | --- |
| SCGGDGGIVVWNMDVERQETPEWL [WDFY2] | 3.82 ± 0.34 | 3.79 ± 0.18 |
| SDINSIRRILDELTLCKSDLESQV [KRT34] | 3.34 ± 0.2 | 3.1 ± 0.37 |
| SDLEDMEEEEGTRSPTLEPPRGRS [SMG5] | 5.37 ± 0.16 | 5.39 ± 0.2 |
| SDSGSDKSLEGGGTAFDAETDSEM [SMG5] | 5.54 ± 0.15 | 5.62 ± 0.19 |
| SEADASHCIQQILESVNHCHLNGI [CAMK2D] | 2.98 ± 0.27 | 2.89 ± 0.33 |
| SEAKLYGRCELARVLHDFGLDGYR [SPACA3] | 2.23 ± 0.15 | 2.42 ± 0.13 |
| SEELLSLKYENDYPSVILRDPLQT [ETS1] | 4.05 ± 0.14 | 4.14 ± 0.13 |
| SEGACEKEKQSRDFQGRILSVDPE [RHOBTB1] | 5.22 ± 0.42 | 5.12 ± 0.35 |
| SEPIRRAGKSGTSTPTTPGSTAIT [MAP2] | 4.66 ± 0.25 | 4.65 ± 0.2 |
| SEQESLLQQAQAQFRMAQEEARRN [SMG5] | 5.19 ± 0.2 | 5.14 ± 0.31 |
| SFFAAQAGARKIYAVEASTMAQHA [CARM1] | 2.8 ± 0.45 | 2.78 ± 0.69 |
| SFVLSSLQLGEGVEFDVLPAFDAL [OAS1] | 2.45 ± 0.59 | 2.26 ± 0.53 |
| SHRFPEDHDPTIEDAYKIRIRIDD [RIT1] | 3.98 ± 0.19 | 4.28 ± 0.31 |
| SILRAPAYPLELQGQPDPAPRPGP [MOSPD3] | 4.53 ± 0.28 | 4.39 ± 0.43 |
| SKLRNYRKDLAKLHREVRSTPLTA [VTI1B] | 3 ± 0.25 | 3.26 ± 0.26 |
| SLARNPAPGVLTNKRKTYTESYIA [ZC2HC1A] | 3.22 ± 0.21 | 3.23 ± 0.41 |
| SLHCLLDQFDKDLPVYLKKDPAYF [DENND6A] | 2.13 ± 0.41 | 2.23 ± 0.23 |
| SLISLSNNTGKNLELKFVSSLRRQ [TENT5D] | 2.34 ± 0.081 | 2.58 ± 0.098 |
| SLKEELMCLKKNHEEEVSVLRCQL [KRT36] | 3.09 ± 0.31 | 3.23 ± 0.4 |
| SLNGPLSTSRHVMAPVMAHVDPEE [ADAMTS4] | 4.5 ± 0.25 | 4.49 ± 0.25 |
| SLRDSGYFYDPIERDIEIGFLPWL [RSPH3] | 2.28 ± 0.49 | 2.37 ± 0.47 |
| SLSSIATCVYIAEIAPQHRRGLLV [SLC2A12] | 2.6 ± 0.81 | 2.6 ± 0.52 |
| SLVKELLRMCSHGEGKINYYNFVR [EFHC1] | 2.31 ± 0.32 | 2.46 ± 0.8 |

| Sequence | protein stability index (treatment: DMSO) | protein stability index (treatment: MLN4924 1 uM, 8 h) |
| --- | --- | --- |
| SMPSYSSCTVTTVQPMDRLPYQHF [TBX5] | 2.56 ± 0.3 | 2.64 ± 0.17 |
| SNPGVDFGDVSERLALRQRLKCRS [GALNT9] | 4.43 ± 0.1 | 4.56 ± 0.17 |
| SPGIGAVYLANQAKNQSDEAKEAK [RTP4] | 5.28 ± 0.22 | 5.28 ± 0.12 |
| SPKTNGHIENGPFSLEQQLDDEDD [SRPK2] | 5.522 ± 0.051 | 5.56 ± 0.22 |
| SPLLETFSDLQVYSYRRLGEEALS [SLC22A15] | 2.44 ± 0.31 | 2.27 ± 0.23 |
| SPNYPSKYPPDRECIYIIEAAPRQ [NETO1] | 2.58 ± 0.11 | 2.77 ± 0.31 |
| SPVLLGWVEQAYADKCVCGPSAPP [TIAF1] | 2.67 ± 0.057 | 2.86 ± 0.28 |
| SQKDLENDPSVNSQAQETTIIASN [TOR1AIP2] | 5.37 ± 0.16 | 5.28 ± 0.29 |
| SQVPTGEVFYYSCEYNFVSPSKSF [CFHR2] | 2.59 ± 0.85 | 2.08 ± 0.26 |
| SRGYAYRDNGHSNRDEHSSRGYRN [RBMY1A1] | 4.31 ± 0.16 | 4.21 ± 0.12 |
| SRMKERAIDLNKKGKDNKHPMYRR [ZMYND11] | 4.12 ± 0.2 | 4.08 ± 0.46 |
| SRPTGQQLESLGLLAPGEQSLPCT [KISS1] | 4.29 ± 0.16 | 4.38 ± 0.25 |
| SRQRQSRMEKGEPYMSIQPAEDPD [SMARCE1] | 5.55 ± 0.11 | 5.57 ± 0.33 |
| SRSSLMPLRNDVDKRGETTSASLL [SLC2A12] | 4.55 ± 0.15 | 4.56 ± 0.11 |
| SSITRQKKRLQELALALKKCKPSL [TMEM120A] | 2.39 ± 0.41 | 2.81 ± 0.39 |
| SSPNLQVSSDGTLKYMEVTLRPTD [PCDHGC5] | 3.84 ± 0.092 | 4.12 ± 0.33 |
| SSSPASVTTEQLGAKMTERGSVAR [PXN] | 4.86 ± 0.42 | 4.76 ± 0.59 |
| SSSYEQFNGELPNGRHKIPESQFP [SRPK2] | 4.1 ± 0.24 | 4.21 ± 0.22 |
| STSYSPLASLPLKADTKGFCNISL [PLAGL1] | 2.38 ± 0.2 | 2.27 ± 0.2 |
| STYYWPRPRRYVQPPEMIGPMRPE [GAGE1] | 2.68 ± 0.33 | 3.01 ± 0.31 |
| SVAHLPWRMLTYKALNTFIDDLFA [CLPTM1] | 2.46 ± 0.25 | 2.28 ± 0.37 |
| SVINNGHNQKVHMHMVDLMSSIIC [PDS5B] | 2.02 ± 0.27 | 2.53 ± 0.3 |
| SVNEVDFEGRTPMHVACQHGQENI [RIPK4] | 4.31 ± 0.27 | 4.57 ± 0.076 |

| Sequence | protein stability index (treatment: DMSO) | protein stability index (treatment: MLN4924 1 uM, 8 h) |
| --- | --- | --- |
| SVNISLDNLLPGMQPSKPQQPSLN [CLINT1] | 3.4 ± 0.23 | 3.51 ± 0.16 |
| SWSDGMAFCALVHSFFPDAFDYNS [SMTNL2] | 2.95 ± 0.65 | 2.9 ± 0.67 |
| TACLTDRGIIMTFGSGSNGCLGHG [NEK8] | 2.23 ± 0.2 | 2.28 ± 0.32 |
| TAPLYKDEKEQLIIPQVPLFNILA [USP39] | 2.15 ± 0.13 | 2.09 ± 0.39 |
| TDDDGQAPEAKDGSSFSGRVFRVT [APMAP] | 4.94 ± 0.24 | 4.74 ± 0.23 |
| TDLEMQIESLNEELAYMKKNHEEE [KRT13] | 5.4 ± 0.16 | 5.433 ± 0.051 |
| TEGFPPGGGNARATGMFLQYTVPG [ZFYVE21] | 3.11 ± 0.16 | 3.07 ± 0.27 |
| TEITELRRTLQGLEIELQSQLSMK [KRT13] | 2.78 ± 0.27 | 2.85 ± 0.18 |
| TEVITASEFHPHHCNLFVYSSSKG [PPP2R2C] | 2.73 ± 0.24 | 2.97 ± 0.29 |
| TFGPIPEFSRATAEKVNQDMCMKV [CRYL1] | 3.9 ± 0.25 | 3.94 ± 0.17 |
| TFPSGSGAHFPQVPGGAVRVAAAA [PI4K2A] | 3.81 ± 0.27 | 3.81 ± 0.32 |
| TGVPGSPGHIGPPGPTGPKGISGH [EMID1] | 4.33 ± 0.3 | 4.71 ± 0.27 |
| TGWFGGGFTSYLGFGDEDTGLELI [MIA2] | 2.07 ± 0.35 | – |
| TIEECCRKQKQELCEKFDYLYGIL [TRIM55] | 1.88 ± 0.54 | 2.41 ± 0.85 |
| TIIPILQHLKYKEHPEALSCLLLQ [INTS3] | 2.35 ± 0.15 | 2.25 ± 0.14 |
| TILLSYGVILHSLKTQSLEGKRKA [OR4A15] | 2.5 ± 0.082 | 2.41 ± 0.55 |
| TISFGSVSPGGVKLEISTKEVPVV [EPB41L3] | 2.9 ± 0.21 | 3.31 ± 0.18 |
| TKGVREVERALQLPREPGDSAQFT [FEM1A] | 4.72 ± 0.23 | 4.76 ± 0.29 |
| TKILVVNAAYFVGKWMKKFPESET [SERPINB5] | 2.56 ± 0.6 | 2.53 ± 0.47 |
| TKIRALQGSLENMSKLLKRQNDIL [CD207] | 2.4 ± 0.16 | 2.57 ± 0.21 |
| TKNKELTDEFRELRATVERMGLMK [FADS1] | 3.71 ± 0.37 | 3.55 ± 0.27 |
| TKVGGTNPNGGSFEEVLSSTAHAS [TPD52L1] | 4.78 ± 0.26 | 4.69 ± 0.26 |
| TLKCLSHHVADAYTSSQKVSPIQI [TOR1AIP2] | 2.53 ± 0.096 | 2.6 ± 0.37 |

| Sequence | protein stability index (treatment: DMSO) | protein stability index (treatment: MLN4924 1 uM, 8 h) |
| --- | --- | --- |
| TLLKKISEASKAFQMEKIEHGYEN [TRIM55] | 2.3 ± 0.26 | 2.4 ± 0.15 |
| TLPVSGNLLDVYSSQGVATPAITV [TFE3] | 2.58 ± 0.24 | 2.73 ± 0.27 |
| TLPYPVKIKVRFSFFLQIYLIMIF [HACD3] | 2.86 ± 0.94 | 2.84 ± 0.72 |
| TLRDHFKGISSHSRSSLMPLRNDV [SLC2A12] | 2.96 ± 0.15 | 3.03 ± 0.37 |
| TNFHGVCMFCNEEFLGNRSVILNH [ZNF277] | 2.08 ± 0.33 | 2.11 ± 0.39 |
| TPISNEVEMESEEQIAERKRKMVS [KMT2E] | 5.02 ± 0.36 | 5.05 ± 0.18 |
| TPLHVAAFLGDAEIIELLILSGAR [ANKRD44] | 2.57 ± 0.7 | 2.52 ± 0.22 |
| TPLLIAARYGHLDVVEYLVDRCGA [FEM1A] | 2.05 ± 0.27 | 2.18 ± 0.15 |
| TPLTFTKVSEGQADIMISFVRGDH [MMP1] | 2.64 ± 0.28 | 2.65 ± 0.26 |
| TPRRVFANAHTYHINSISVNSDYE [PPP2R2B] | 3.35 ± 0.34 | 3.12 ± 0.42 |
| TPVSYRMAKTLVFSKVKTSLGLDH [ACSBG2] | 2.33 ± 0.33 | 2.41 ± 0.18 |
| TQHWPIRLDGQQEPQPFVTSDVYS [MYORG] | 3.56 ± 0.27 | 3.46 ± 0.22 |
| TQPTHGQFALTNGDPLNCHSYLSG [NR2F2] | 3.69 ± 0.17 | 3.87 ± 0.23 |
| TSCKLTDLRGVCVSGKCEPIGCDG [ADAMTSL2] | 3.4 ± 0.12 | 3.28 ± 0.27 |
| TSVNLGILTADLYSLFVGLFLFGY [SLC35F2] | 2.93 ± 0.26 | 3.12 ± 0.2 |
| TTISYLPHAPPFAGGHPAQLGLGR [JUNB] | 2.72 ± 0.2 | 2.61 ± 0.26 |
| TTNVKSASRQKTSLGIELHCNVSN [ZNF396] | 3.39 ± 0.29 | 3.82 ± 0.31 |
| TVSTSEVTSQQEPQIPVDRGSETT [TAF7L] | 5.49 ± 0.12 | 5.44 ± 0.16 |
| TYSLPPFLKAVLRQERVSLYPFQI [CDS1] | 2.19 ± 0.8 | 2.12 ± 0.32 |
| VAQRSGCEERWLVIDRKVYNISEF [FADS1] | 2.11 ± 0.084 | 2.12 ± 0.32 |
